The target in assay [1] is soluble recombinant protein CD73. The assay can be described thus: cell-based or functional assay.
A further assay concerns the target T1, Human CD73 antigen (human, UniProt P21589 27-547, limits assumed).
T1 construct: Antigen used as analyte in SPR; also called NT5E
T1 sequence (looked up): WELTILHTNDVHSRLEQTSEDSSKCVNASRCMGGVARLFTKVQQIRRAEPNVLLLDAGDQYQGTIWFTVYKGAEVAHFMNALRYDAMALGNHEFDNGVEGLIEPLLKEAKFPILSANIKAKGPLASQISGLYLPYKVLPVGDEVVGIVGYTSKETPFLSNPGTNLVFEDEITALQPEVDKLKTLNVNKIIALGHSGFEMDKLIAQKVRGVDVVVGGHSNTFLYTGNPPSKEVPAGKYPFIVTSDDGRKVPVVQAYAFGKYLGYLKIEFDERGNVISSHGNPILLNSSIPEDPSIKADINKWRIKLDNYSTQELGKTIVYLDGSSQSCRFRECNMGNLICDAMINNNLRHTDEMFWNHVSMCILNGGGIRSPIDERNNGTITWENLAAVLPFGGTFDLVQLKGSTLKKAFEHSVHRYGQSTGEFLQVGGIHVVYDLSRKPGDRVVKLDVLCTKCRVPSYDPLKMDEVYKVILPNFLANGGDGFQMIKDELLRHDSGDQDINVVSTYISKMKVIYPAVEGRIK
Put plainly: SPR (Biacore 8K), antibody captured on anti-human capture CM5 chip, antigen as analyte, 1:1 model. On the procedure:
(§1) An Anti-Human Capture-CM5 chip (GE, #BR-1005-30) was prepared using coupling methods of a Human Antibody Capture Kit (GE, #BR-1008-39) and an amino coupling kit (GE, BR-1000-50). The chip was equilibrated at room temperature for 20-30 mins and loaded into a Biacore 8K instrument. The antigen and antibody were diluted to an experimental working concentration using an equilibration buffer. The antigens were diluted with the equilibrium buffer to 50 nM, and then diluted three-fold for seven concentration gradients, and two zero concentrations (i.e., the equilibrium buffer) and one repeat concentration (typically the lowest concentration repeat) were set. Experimental analysis was performed on 10 antigen concentrations (2 zero concentrations, 7 gradient concentrations, and 1 repeated concentration) in a cyclic manner according to an order of antibody, antigen, and regeneration. The antigen injection flow rate was 30 μL/min, the binding time was 120 s, and the dissociation time was 600 s. Following the analysis, the data was analyzed using the corresponding analysis program to confirm that there was no obvious reference binding. Using Kinetics and a 1:1 binding model, the data was fit to obtain the kinetic related parameters Ka, Kd, and KD values of the bispecific antibodies and parental control antibodies.
For orientation: SPR reads the build-up and loss of mass on a sensor chip optically.

Assay [2] concerns the target T2, Human CD39 on CHOK1-huCD39-10B6 cells overexpressing CD39 (human, UniProt P49961 1-510).
T2 sequence (looked up): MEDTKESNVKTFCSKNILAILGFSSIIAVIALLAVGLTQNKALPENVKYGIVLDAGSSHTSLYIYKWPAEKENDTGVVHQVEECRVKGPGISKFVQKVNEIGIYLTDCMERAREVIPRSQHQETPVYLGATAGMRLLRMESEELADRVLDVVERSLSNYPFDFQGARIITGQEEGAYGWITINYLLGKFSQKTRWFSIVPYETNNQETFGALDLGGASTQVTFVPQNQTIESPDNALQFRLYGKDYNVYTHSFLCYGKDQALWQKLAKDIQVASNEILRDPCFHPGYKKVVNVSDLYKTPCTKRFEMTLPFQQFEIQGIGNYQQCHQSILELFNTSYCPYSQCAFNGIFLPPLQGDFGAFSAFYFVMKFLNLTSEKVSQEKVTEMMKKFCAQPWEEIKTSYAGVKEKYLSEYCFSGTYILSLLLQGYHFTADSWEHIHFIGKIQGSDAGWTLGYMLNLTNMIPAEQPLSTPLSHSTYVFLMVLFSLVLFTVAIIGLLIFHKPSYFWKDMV
Put plainly: cell-based or functional assay.

In the next assay the target is T3, Human CD39 antigen (human, UniProt P49961 38-478).
T3 construct: Antigen used as analyte in SPR; also called ENTPD1
T3 sequence (looked up): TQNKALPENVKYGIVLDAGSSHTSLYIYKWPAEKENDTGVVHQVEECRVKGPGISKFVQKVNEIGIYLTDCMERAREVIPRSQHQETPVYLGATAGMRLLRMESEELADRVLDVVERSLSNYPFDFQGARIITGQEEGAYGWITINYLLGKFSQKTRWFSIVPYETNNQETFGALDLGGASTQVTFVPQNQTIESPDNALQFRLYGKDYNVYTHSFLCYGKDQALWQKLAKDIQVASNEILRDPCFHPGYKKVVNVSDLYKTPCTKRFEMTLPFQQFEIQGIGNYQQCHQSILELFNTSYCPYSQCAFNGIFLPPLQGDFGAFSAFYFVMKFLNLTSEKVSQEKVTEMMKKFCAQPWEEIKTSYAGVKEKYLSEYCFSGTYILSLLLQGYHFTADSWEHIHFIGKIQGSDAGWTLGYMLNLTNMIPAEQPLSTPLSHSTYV
The assay can be described thus: SPR (Biacore 8K), antibody captured on anti-human capture CM5 chip, antigen as analyte, 1:1 model. How it is done:
as §1

Assay [3] deals with T4, Human CD73 on CHOK1-huCD73-3F4 cells overexpressing CD73 (human, UniProt P21589 27-549).
T4 sequence (looked up): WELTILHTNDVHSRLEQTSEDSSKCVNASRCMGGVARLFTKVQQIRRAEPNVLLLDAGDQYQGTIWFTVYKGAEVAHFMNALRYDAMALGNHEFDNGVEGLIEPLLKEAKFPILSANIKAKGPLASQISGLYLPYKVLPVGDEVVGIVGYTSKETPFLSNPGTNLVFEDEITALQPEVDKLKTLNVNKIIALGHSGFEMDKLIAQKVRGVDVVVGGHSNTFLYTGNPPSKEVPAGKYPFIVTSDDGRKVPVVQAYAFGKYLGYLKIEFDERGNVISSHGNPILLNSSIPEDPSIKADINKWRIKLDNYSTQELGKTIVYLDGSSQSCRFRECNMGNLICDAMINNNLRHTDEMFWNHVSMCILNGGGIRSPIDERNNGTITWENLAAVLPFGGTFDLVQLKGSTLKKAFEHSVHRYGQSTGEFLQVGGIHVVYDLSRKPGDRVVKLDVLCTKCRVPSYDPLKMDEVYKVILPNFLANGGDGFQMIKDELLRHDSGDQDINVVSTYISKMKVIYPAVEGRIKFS
The assay can be described thus: cell-based or functional assay.

Sequence of soluble recombinant protein CD73 (P21589 whole entry): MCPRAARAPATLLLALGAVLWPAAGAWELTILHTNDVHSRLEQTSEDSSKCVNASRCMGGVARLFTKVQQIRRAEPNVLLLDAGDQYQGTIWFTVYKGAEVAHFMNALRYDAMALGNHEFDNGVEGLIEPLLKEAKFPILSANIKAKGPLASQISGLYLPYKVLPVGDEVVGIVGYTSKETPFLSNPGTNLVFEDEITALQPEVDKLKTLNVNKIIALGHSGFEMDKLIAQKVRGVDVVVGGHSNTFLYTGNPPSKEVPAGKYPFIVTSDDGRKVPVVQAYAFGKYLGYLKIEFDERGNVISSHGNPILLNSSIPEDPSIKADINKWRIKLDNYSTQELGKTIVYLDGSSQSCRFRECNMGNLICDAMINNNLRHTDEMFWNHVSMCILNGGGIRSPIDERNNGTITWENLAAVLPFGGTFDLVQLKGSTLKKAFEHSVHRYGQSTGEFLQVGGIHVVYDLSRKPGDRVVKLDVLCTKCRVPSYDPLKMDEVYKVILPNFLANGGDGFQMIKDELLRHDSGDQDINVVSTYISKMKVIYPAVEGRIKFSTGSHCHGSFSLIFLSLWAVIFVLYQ

B1: 900698 (CD73 parental monoclonal antibody corresponding to 700038) (antibody, human IgG1, kappa, L234A L235A, V domains shown)
VH: QVQLVESGGGLVKPGGSLRLSCAASGFTFSKYAMSWIRQAPGKGLEWVAEISSGGGYINYADSVKGRFTISRDNAKNSLYLQMNSLRAEDTAVYYCARAIYYYGSSYNYYAMDYWGQGTTVTVSS
VL: DIQMTQSPSSLSASVGDRVTITCRASQDVGTAEAWYQQKPGKAPKLLIYWASTRHTGVPSRFSGSGSGTDFTLTISSLQPEDFATYYCQQYSSYPLTFGQGTKLEIKR
As usually defined, the Kd is a measure of binding affinity in units of concentration. A lower Kd goes with higher affinity. The koff is a measure of how fast the partners let go of each other. A low value points to a long-lived complex. As usually defined, the kon is a measure of how fast the partners come together. A high value points to faster complex formation. With B1, the “EC50 (µg/mL), inhibition of enzyme activity of soluble CD73 protein (CellTiter Glo)” value in assay [1] is 1.74 µg/mL. In the assay with Human CD73 antigen, this molecule showed a dissociation constant (Kd) of 0.382 nM, a koff of 0.000215 s⁻¹ and a kon of 561000 M⁻¹ s⁻¹.

B2: 700053 (CD39 nanobody) (VHH)
VHH: QVQLVESGGGLVQPGGSLRLSCAASGSISSIAAMGWYRQAPGKERELVAAITSGGNTNLADSTKGRFTISRDNTKNTVYLQMNSLKPEDTAVYYCNAWGEDDSSWFGTDLCDYWGQGTQVTVSS
notes: In the SPR it was captured on an anti-human antibody capture chip, so the tested construct may carry a human Fc
As for B2, in assay [2], the “EC50 (µg/mL), inhibition of CD39 ATPase activity on CHOK1-huCD39-10B6 cells (CellTiter Glo)” value was found to be 0.558 µg/mL. In the assay with Human CD39 antigen, this molecule came in with a Kd of 0.14 nM, a koff of 0.000102 s⁻¹ and a kon of 730000 M⁻¹ s⁻¹.

B3: 900725 (CD73 parental monoclonal antibody corresponding to 700035) (antibody, human IgG1, kappa, L234A L235A, V domains shown)
VH: QVQLVQSGAEVKKPGASVKLSCKASGYTFTSYWIHWVRQAPGQGLEWIGMIHPNSGSTYYNEKFKGRATLTVDKSTSTAYMELSSLRSEDTAVYYCARYYGSDYEWYFDVWGQGTTVTVSS
VL: DIQMTQSPSSMSASVGDRVTITCKASQNVRTAVVWYQQKPGKAPKALIYLASNRHTGVPDRFSGSGSGTDFTLTISSLQPEDFATYFCLQHWNYPYTFGQGTKLEIKR
For the molecule B3, in assay [3], the “EC50 (µg/mL), inhibition of enzyme activity of membrane CD73 on CHOK1-huCD73-3F4 cells (CellTiter Glo)” value turned out to be 0.32 µg/mL. In the assay with Human CD73 antigen, this molecule came in with a Kd of 0.184 nM, a koff of 0.000182 s⁻¹ and a kon of 988000 M⁻¹ s⁻¹.

Source of the values: patent US20250361314A1 (SHANGHAI HUAOTA BIOPHARMACEUTICAL, published 2025).
